# Data taken from the supplement of paper PMC9112550, “Optimization of the antimicrobial peptide Bac7 by deep mutational scanning” (BMC Biology, 2022).
# System: Escherichia coli TOP10
# Experiment: shrunken log2 fold change of peptide-encoding DNA abundance (4.5 h post-induction vs induction); higher = less antimicrobial activity (less host growth inhibition)
# Conditions: time post-induction: 4.5 h; library: site-saturation at positions 5, 18, 19, 20
# 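Further: peptides expressed intracellularly from a pBAD plasmid library in pooled LB shake-flask culture, induced with 0.3% L-arabinose, DNA abundance read by NGS, three biological replicates, DESeq2 with apeglm shrinkage.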
row,Sequence,shrunken log2 fold change
1,RRIRYRPPRLPRPRPRPGFQPRP,-1.11
2,RRIRDRPPRLPRPRPRPAEIPRP,0.184
3,RRIRNRPPRLPRPRPRPPTCPRP,-0.221
4,RRIRCRPPRLPRPRPRPTDGPRP,-0.116
5,RRIRFRPPRLPRPRPRPKYVPRP,-0.594
6,RRIRFRPPRLPRPRPRPWFRPRP,-0.151
7,RRIRGRPPRLPRPRPRPLSMPRP,1.34
8,RRIRIRPPRLPRPRPRPGSDPRP,-0.209
9,RRIRPRPPRLPRPRPRPETNPRP,0.192
10,RRIRFRPPRLPRPRPRPCFLPRP,-0.623
11,RRIRKRPPRLPRPRPRPHPSPRP,0.163
12,RRIRMRPPRLPRPRPRPYYPPRP,-0.159
13,RRIRERPPRLPRPRPRPPREPRP,0.87
14,RRIRMRPPRLPRPRPRPTYYPRP,-0.554
15,RRIRSRPPRLPRPRPRPVATPRP,0.707
16,RRIRMRPPRLPRPRPRPFQHPRP,0.0658
17,RRIRDRPPRLPRPRPRPYTTPRP,-0.556
18,RRIRLRPPRLPRPRPRPTYYPRP,-0.399
19,RRIRCRPPRLPRPRPRPAKYPRP,-0.299
20,RRIRSRPPRLPRPRPRPHSSPRP,0.171
21,RRIRHRPPRLPRPRPRPAFVPRP,0.113
22,RRIRQRPPRLPRPRPRPPNDPRP,0.0155
23,RRIRTRPPRLPRPRPRPGIYPRP,-0.279
24,RRIRHRPPRLPRPRPRPNRPPRP,-0.022
25,RRIRARPPRLPRPRPRPDYYPRP,-0.135

row,Sequence,shrunken log2 fold change
1,RRIRGRPPRLPRPRPRPNCVPRP,0.543
2,RRIRVRPPRLPRPRPRPVLFPRP,0.00022
3,RRIRWRPPRLPRPRPRPKFKPRP,-0.00802
4,RRIRLRPPRLPRPRPRPIDFPRP,-0.384
5,RRIRCRPPRLPRPRPRPYWEPRP,-0.388
6,RRIRGRPPRLPRPRPRPKHPPRP,0.608
7,RRIRTRPPRLPRPRPRPWILPRP,-0.23
8,RRIRYRPPRLPRPRPRPMHAPRP,0.495
9,RRIRTRPPRLPRPRPRPMQMPRP,0.39
10,RRIRARPPRLPRPRPRPSALPRP,0.591
11,RRIRIRPPRLPRPRPRPNDHPRP,-0.569
12,RRIRIRPPRLPRPRPRPKMQPRP,-0.293
13,RRIRTRPPRLPRPRPRPAITPRP,-0.44
14,RRIRHRPPRLPRPRPRPASAPRP,0.0183
15,RRIRGRPPRLPRPRPRPDPRPRP,0.716
16,RRIRARPPRLPRPRPRPWCAPRP,0.147
17,RRIRQRPPRLPRPRPRPSGNPRP,-0.323
18,RRIRMRPPRLPRPRPRPREIPRP,1.35
19,RRIRWRPPRLPRPRPRPTTEPRP,0.207
20,RRIRWRPPRLPRPRPRPHGHPRP,-0.0213
21,RRIRERPPRLPRPRPRPDGKPRP,0.00926
22,RRIRWRPPRLPRPRPRPRSQPRP,0.434
23,RRIRSRPPRLPRPRPRPFNKPRP,-0.81
24,RRIRVRPPRLPRPRPRPRNFPRP,-0.275
25,RRIRARPPRLPRPRPRPIRHPRP,-0.0279

row,Sequence,shrunken log2 fold change
1,RRIRSRPPRLPRPRPRPIERPRP,-0.23
2,RRIRFRPPRLPRPRPRPCWAPRP,0.105
3,RRIRMRPPRLPRPRPRPEFNPRP,0.301
4,RRIRNRPPRLPRPRPRPWNAPRP,-0.255
5,RRIRERPPRLPRPRPRPTRSPRP,-0.196
6,RRIRYRPPRLPRPRPRPTRNPRP,-0.404
7,RRIRDRPPRLPRPRPRPKTTPRP,0.0604
8,RRIRTRPPRLPRPRPRPYKPPRP,-0.551
9,RRIRWRPPRLPRPRPRPSCVPRP,0.121
10,RRIRDRPPRLPRPRPRPGSPPRP,0.0355
11,RRIRCRPPRLPRPRPRPWTKPRP,-0.402
12,RRIRNRPPRLPRPRPRPIDDPRP,0.00709
13,RRIRFRPPRLPRPRPRPVISPRP,-0.674
14,RRIRKRPPRLPRPRPRPYAQPRP,-0.00925
15,RRIRPRPPRLPRPRPRPHVTPRP,-0.0437
16,RRIRIRPPRLPRPRPRPWPYPRP,-0.163
17,RRIRKRPPRLPRPRPRPYANPRP,-0.091
18,RRIRQRPPRLPRPRPRPMAWPRP,-0.128
19,RRIRVRPPRLPRPRPRPHPCPRP,0.106
20,RRIRCRPPRLPRPRPRPEFTPRP,-0.194
21,RRIRKRPPRLPRPRPRPAVWPRP,0.563
22,RRIRRRPPRLPRPRPRPNSDPRP,-0.17
23,RRIRNRPPRLPRPRPRPVLDPRP,-0.299
24,RRIRDRPPRLPRPRPRPMMIPRP,0.0818
25,RRIRSRPPRLPRPRPRPRSHPRP,-0.203

row,Sequence,shrunken log2 fold change
1,RRIRTRPPRLPRPRPRPRWFPRP,0.196
2,RRIRRRPPRLPRPRPRPRDYPRP,-0.116
3,RRIRARPPRLPRPRPRPWRMPRP,0.0537
4,RRIRYRPPRLPRPRPRPGCIPRP,-0.819
5,RRIRERPPRLPRPRPRPVDRPRP,0.0364
6,RRIRSRPPRLPRPRPRPHRPPRP,0.0831
7,RRIRQRPPRLPRPRPRPWQGPRP,-0.137
8,RRIRVRPPRLPRPRPRPSNQPRP,-0.507
9,RRIRNRPPRLPRPRPRPWRIPRP,0.0411
10,RRIRIRPPRLPRPRPRPKYMPRP,-0.566
11,RRIRDRPPRLPRPRPRPVMKPRP,-0.0716
12,RRIRDRPPRLPRPRPRPAKSPRP,-0.0126
13,RRIRKRPPRLPRPRPRPRQDPRP,-0.0954
14,RRIRMRPPRLPRPRPRPQKSPRP,0.167
15,RRIRVRPPRLPRPRPRPYTYPRP,0.128
16,RRIRTRPPRLPRPRPRPWQVPRP,-0.0764
17,RRIRFRPPRLPRPRPRPSESPRP,-0.0918
18,RRIRFRPPRLPRPRPRPFAQPRP,-0.263
19,RRIRMRPPRLPRPRPRPAMRPRP,1.14
20,RRIRARPPRLPRPRPRPAYWPRP,0.393
21,RRIRMRPPRLPRPRPRPKHKPRP,0.562
22,RRIRNRPPRLPRPRPRPVCLPRP,-0.453
23,RRIRDRPPRLPRPRPRPYGSPRP,-0.0409
24,RRIRPRPPRLPRPRPRPRRTPRP,0.507
25,RRIRFRPPRLPRPRPRPWPVPRP,0.139

row,Sequence,shrunken log2 fold change
1,RRIRFRPPRLPRPRPRPHTEPRP,-0.731
2,RRIRCRPPRLPRPRPRPQTEPRP,0.0248
3,RRIRMRPPRLPRPRPRPWPWPRP,-0.00171
4,RRIRLRPPRLPRPRPRPCGNPRP,0.0862
5,RRIRYRPPRLPRPRPRPCQQPRP,-0.163
6,RRIRARPPRLPRPRPRPIPGPRP,0.0653
7,RRIRPRPPRLPRPRPRPHMKPRP,1.08
8,RRIRFRPPRLPRPRPRPMEKPRP,0.273
9,RRIRQRPPRLPRPRPRPPQCPRP,0.114
10,RRIRYRPPRLPRPRPRPKDTPRP,-0.392
11,RRIRMRPPRLPRPRPRPEQMPRP,2.44
12,RRIRLRPPRLPRPRPRPHREPRP,-0.969
13,RRIRMRPPRLPRPRPRPCIFPRP,0.0107
14,RRIRKRPPRLPRPRPRPVKCPRP,0.105
15,RRIRGRPPRLPRPRPRPQLQPRP,0.577
16,RRIRHRPPRLPRPRPRPNVIPRP,0.0378
17,RRIRQRPPRLPRPRPRPKYKPRP,-0.445
18,RRIRLRPPRLPRPRPRPSNFPRP,-0.956
19,RRIRHRPPRLPRPRPRPHYAPRP,-0.992
20,RRIRRRPPRLPRPRPRPGYVPRP,0.183
21,RRIRARPPRLPRPRPRPHDTPRP,0.111
22,RRIRRRPPRLPRPRPRPSPMPRP,1.54
23,RRIRFRPPRLPRPRPRPDTWPRP,0.0899
24,RRIRQRPPRLPRPRPRPKEAPRP,0.107
25,RRIRVRPPRLPRPRPRPYMCPRP,-0.274
